# Results as given in the DeepSol protein solubility set.
# Test: soluble on expression in E. coli; label from the status in PepcDB or PDB records
row,Sequence,soluble on expression in E. coli
1,MKIAIIGAGNMGGSIARGLAKGSLIADSDIIVSNPSAGKLEKLKEEFPGISTTLSNTEAATGADVVILAVKPWFVESVMRELKLKSKQTLVSVAAGISFEELAHFVIAPEMPMFRLIPNTAISELESMTLIAARNTNDEQNLFMLRLFNEMGMAMLIPEDKIAATTALTSCGIAYVLKYIQAAMQAGIEMGIRPKDAMEMVAQSVKGAAALILNNDTHPSVEIDKVTTPGGITIKGINELEHNGFTSAVIKAMKASK,soluble
2,MSELIRVPDIGNGEGEVIELLVKPGDKVEADQSLLTLESDKASMEIPSPKAGVVKSIKAKVGDTLKEGDEILELEVEGGEQPAEAKAEAAPAQPEAPKAEAPAPAPSESKPAAPAAASVQDIKVPDIGSAGKANVIEVMVKAGDTVEADQSLITLESDKASMEIPSPASGVVESVSIKVGDEVGTGDLILKLKVEGAA,not soluble
3,MGHHHHHHSHMVNVKGSTKKSNLDRFLHCITPLVPPQSLPKTEIRTLNRLWHPWERQKVEFFRLSDLWDCYDEWSAYGASVPIHVTNGESLVQYYVPYLSAIQIFTSHSSLIRLREESEDGECEGRDPFSDSGSDESVSEEGLENNTLLHPSDRLGYLYLQYFERSAPYTRVPLMDKINELAQRYPGLMSLRSVDLSPASWMSVAWYPIYHIPMGRTIKDLSTCFLTYHTLSSSFQDMEPEENGGDKERVRREGEDITLLPFGMATYKMQGDVWLSQDHDDQERLASLYSVADSWLKQLRVQHHDFNYFCNMSMTHRG,soluble
4,MTLKNNILPLLMLSCCFVLAACSSSNSASASASNKNKNMEPNKGRYSLKNDKMPLNPPNVDHVPNATPKYEPYSRRGNKPYTVYGESYTVLNSGEGFSETGRASWYGEKFHGYETSNGEPYDMYGMSGAHKTLPLPSYARVTNLDNNKQVIIRINDRGPFHSERILDLSYAAAYKLGMLGTGTARIKLDVIYIGSKAATQSAIASVHSSGNHYIQLVASKDKQRLHKMAKDLEKKYQVKTRVQPANNMFRLQLGPIGQAELADRLLIKVKQDGYPAGYIVSEK,not soluble
5,MGSDKIHHHHHHMDLRQIKTFVVVAEELHFGRAAARLQIAQPAVTAQIQALERQLGVPLLIRSTRRVQLTEAGMIFNSRCIDILRDIDRTCLATQAVAGKDLHQITIGTIYPATFGVLPNFVSRINQRFPEARIHIHNGNTVGIVREIERGNINLGFIRPVENIGSLRWQSIHREKYLLAIARENPLSSKSTVTPDDLRKQKIIAFSRAYNSQTDDNFPEEFKKYDLNQQVVYSCNDTQAMLAMITAGIGVGFVPEWVKSIPGQNFELREVEGLERHIGLGLAWSVDDPTVNRDSIIELCRTLIGSEVDWPR,not soluble
6,MAHHHHHHMVLLSVKGTTFPDEFVYECTAATAIYPDLARNLCHIQNSRHLVKLILLSARELLDEARCKKRVEVVDEGPGDGGANSYSALLTEYGAIIESTSARLKDRVVPVSLEEFDQYADRLRELTERLYPEECCVPEGGRSAAVDRLYQLHDDPNLDEDRRLAVYHCRAILDPQWKSHEQQKEDKAGLWFCGKLMEDTIARYSGKNEKSRLTVKVHPKDSVPPSTEPRISYDDQRALYERMRTRREEYKGLEESELRDRVVAQARGKVALTAPAAASPAMSMDLSRLRPICPKREEHEVN,not soluble
7,MFSGGRKVKWNHFGKKYALRFSDYEMEYADLYDALLKKVHEVRADFEGDLAFIDQYGRQVIVSSDKDVREAIQQSKNKLKLHTTLRDGHVIAAADMAEAARGRPARSQSVPPERSYNMYPQRSPSSMDSAPDTYRHHPQQMTRAMSPPPMSTTTGSTHSPPLRQIGETVKTTYSHSGSYGGLYPGGYKGYPYGGGYSNSILYGMPPHNGMLWRFLANPFPFGNAQTRSFIGPNKYHHFGGYNHMYSSGFGGPVW,not soluble
8,GSHMASADLVSSCKDKLAYFRIKELKDILNQLGLPKQGKKQDLIDRVLALLTDEQGQRHHGWGRKNSLTKEAVAKIVDDTYRKMQIQCAPDLATRSHSGSDFSFRPIEEA,soluble
9,GKSDKIIPIAENKEAKAKYDILETYEAGIVLKGSEVKSLREKGTVSFKDSFVRIENGEAWLYNLYIAPYKHATIENHDPLRKRKLLLHKREIMRLYGKVQEKGYTIIPLKLYWKNNKVKVLIALAKGKKLYDRRRELKEKAMKRELEREFKGKIHL,soluble
10,MTLYIGMNNTSGKAITDIDHLRQSVRDILLTPQGSRIARREYGSLLSALIDQPQNPALRLQVMSAVYVALSRWEPRLTLDSITINSHFDGSMVVELAGRRNNGVPVSLSVSTGAENGSD,not soluble
11,MDEKTKKAEEMALSLTRAVAGGDEQVAMKCAIWLAEQRVPLSVQLKPEVSPTQDIRLWVSVEDAQMHTVTIWLTVRPDMTVASLKDMVFLDYGFPPVLQQWVIGQRLARDQETLHSHGVRQNGDSAYLYLLSARNTSLNPQELQRERQLRMLEDLGFKDLTLQPRGPLEPGPPKPGVPQEPGRGQPDAVPEPPPVGWQCPGCTFINKPTRPGCEMCCRARPEAYQVPASYQPDEEERARLAGEEEALRQYQQRKQQQQEGNYLQHVQLDQRSLVLNTEPAECPVCYSVLAPGEAVVLRECLHTFCRECLQGTIRNSQEAEVSCPFIDNTYSCSGKLLEREIKALLTPEDYQRFLDLGISIAENRSAFSYHCKTPDCKGWCFFEDDVNEFTCPVCFHVNCLLCKAIHEQMNCKEYQEDLALRAQNDVAARQTTEMLKVMLQQGEAMRCPQCQIVVQKKDGCDWIRCTVCHTEICWVTKGPRWGPGGPGDTSGGCRCRVNGIPCHPSCQNCH,soluble
12,ESRLDRILESGVLRVATTGDYKPFSYRTEEGGYAGFDVDMAQRLAESLGAKLVVVPTSWPNLMRDFADDRFDIAMSGISINLERQRQAYFSIPYLRDGKTPITLCSEEARFQTLEQIDQPGVTAIVNPGGTNEKFARANLKKARILVHPDNVTIFQQIVDGKADLMMTDAIEARLQSRLHPELCAVHPQQPFDFAEKAYLLPRDEAFKRYVDQWLHIAEQSGLLRQ,not soluble
13,DRSVIYPSEYFFLKGGNAFWRFGDSMEAAFQTLPPYTATADKHLILQTSYRASRLLVNFLPFVFLKTNDEALHFKARWDMVSRKPYLEMGYSES,not soluble
14,MLSALLIRNIRNASKLASVAGPNSDRIVNVKWSDGKTGVFPLIWLRDTSPDPSTYTISPAMTARKLTMLEFDVEQNARKLWIDEDANCLKIEWESGVLSEFPSEWLKIRNPSDQEARRRRRKVYLFPEQTWGKAEIEGKLKKFSHEEFMKNEQVVHDFLQAVCIDGIAVLKGAPQGVRGAVEAIGDRIGMIKRTHFGLVFEVSLKADASNMAYASNGGLPFHTDFPSLSHPPQLQMLHMLQSAEEGGHSLFVDGFHVAEQLRVEKPEIFKILTTQSMEYIEEGYDVHEINGKTIRFDYDMCARHKVIRLNDDGKVNKIQFGNAMRSWFYDCEPSKVQDVYRAMKTFTEYCYQPRNMLKFRLEDGDTVLWANQRLLHTRDGFRNAPEKARTLTGCYFDWDIVKSRVRFLRDKLSLEQNQPSA,not soluble
15,MGERIIPKNMKPMNGMLLEHLARYYFSTPYASGRVLDIACGTGYGSVMVAKTRKTEVDQVLGVDFDADVIHYAKQNYYHPKVSFLVGDAMDPYLRNQIGTFDTILSFETIEHVKDDRLFIERMRQLLKKDGTLVLSTPFGQGRGKPSDEPFHYHQLTEEEFRSLFDSFSEKEVFYQRGVTIEPKRTNVHYAFGVAVCKLEHHHHHH,not soluble
16,KRETDNGHDVFESFEQMEKTAFVIPSAYGYDIKGYHVAPHDTPNTIIICHGVTMNVLNSLKYMHLFLDLGWNVLIYDHRRHGQSGGKTTSYGFYEKDDLNKVVSLLKNKTNHRGLIGIHGESMGAVTALLYAGAHCSDGADFYIADCPFACFDEQLAYRLRAEYRLPSWPLLPIADFFLKLRGGYRAREVSPLAVIDKIEKPVLFIHSKDDDYIPVSSTERLYEKKRGPKALYIAENGEHAMSYTKNRHTYRKTVQEFLDNMNDSTE,not soluble
17,GPGSMDTECLRARHSECIDLASVQLRRQLMDSGIPFTEAEIAALPARFVELLISRLEMFRQREVETRAAVDKCRRETEVEEMRFEQLREATERVQGEKRIISSKISAAVSEYMREDKLEKEKQRERHNELQEVFRQVEKKEAEHRREIIEMERLRKMLKKVTK,not soluble
18,MSLETKVAARDLSSLLSHCEAPVAALTVTAFKCKASACSVAPAPGSNTGLGALMSMAQAAQGLQTFPNIGDGLSNALTTALKTTGCFKVMAREDFEDLRREAEAAGITLKSASADYLVTGAITSLAVGAKTQSFGGGFVPLVGAVSRSTKSANISIDVRLVDVKASEVKASQTFDVSNERSSWGAGGAGWGGSGALFGAASSTQSPELDSVANESVIQAANYIVTQVAGSAAIPPVAAITKEGHHHHHH,not soluble
19,MGSDKIHHHHHHMRGEQSPNGLHYAREHLSCKNYMTDIDTGFKYIKFDTEKCIEEEYTHKNYLLFFLEGDFSVYCNQFCNRTFHSNEMVVLPKSSMIKISATDKSQMLAMAFDIPQSNCDKLLFQGLSSICENIDYDFSPIPMRYPLMPFLETVVHCLRNEMNCTYLHNVIEREFFFLLRGFYNKKEIATLFHPIIGRQLEFRDFVMQNYSKVNNLDELITLSNIGRTSFFIKFKEEFGITAKQWMMKQLKKRILGKVIEPGICVKQLMEVCNFESQAQLYRYFKQHFRCTPKQLIDRYQAKTDNL,not soluble
20,MSLMYGYPEKWLEGMTTGEGIAAELRLGIVNGHIAEGTLLTENQMAKQFNVSRSPIRDAFKLLQQNQLIQLERMGAHVLPFGEQEKKEMYDLRLMLESFAFSRVKNQERLPIVKEMKKQLEMMKVAVKFEDAESFTKHDFEFHETLIKASNHQYLNSFWSHLKPVMMALVLTSMRQRMQQNPQDFERIHHNHQVFIDAVEQYDSQILKEAFHLNFDDVGKDIEGFWLNEGHHHHHH,soluble
21,MAHHHHHHMLRARTLLLFMRPEAAAAELRRLLPLLSFAGRRTGAATHSVASLIVSTAYSATAARSVTNHSRDCPVLSKKLPLPLIGKESSFAARPCLNCVRERVHYVSSLSFCDYFEKKCAEAQHYRNGASSNGVVGTAALPKLLLEAIERSYGSVAAFKDSVMLHSTGAMSPGRLWIVYTPPISGSEHGAVRLLNLPACKVPLVHGLWPLAVINMTEKRLCEQIACRSGKGGDAVDADDAPAWRHAARTRKTLGALATTEEGNDRAGNVAQVKLSSIQSAIAEEALCAMNWKFVETQLTSALAYYSSKERTQTQREHRKEKEHVAAVRAMSQLKNSGAVIHATDSVTITSSNSFVASSASEPNLSAAAAVTSSSAKAENSALGEANTQTAAVAAPSAEATAANTASNSAQPADNTATGAAAAEPRAVQQADGTWEYHYNNGSVTKALPDGTKVFQTESLTTTVFVNGDTLFEYPNNTSILDRADGVRVITYADGTKKEERLK,soluble
22,MRVLVKLSGEALSGEGGRGFDPERVNYIVNEIKSAIEEGFKIGIVVGAGNLFRGVELKNLTMTRADQIGLLGTVMNSVYLKDIFERSGLKARIYSQIVNLPDVERVNYDSIESALRENSILIFAGGTSNPFFTTDTAAVLRAQEMRAKLVVKATKVDGVYDKDPKKFPDAKKIPHLTFSEAMKMGLKVMDAEAFALCKKLGITVKVINFFEPGTLLKALKGEDVGSTVVPD,soluble
23,MGSDKIHHHHHHMRLTSREKEIFEVLKKEPLISQEELARRFNITRSSIAVHISNLMKKGVILGKGYVFNEQVSVVVIGESYYYIKTSGPDNDCSINMGLGGFAVDTGRIFANFGLNVKLITIVGNDEEGTNIFNELQGKGVDIVNIFRHAKKRSCRKVFLDDKRILEENFSLQDYEKAIDAREWVVFNCEWLVVDTRFQELLCHKAIGKDEEKLPFFCTCRYLYSIEEIPSFLSRYDLLVLGVADSNIMDHYLSQALALSSNGVQSVILSDGNTRLFYFQKGNAHEFPLLPNQCFDSQEGLPALLAGIVYGLSSGYSLRQAVRIAVGTAASND,not soluble
